Assay results taken from the supplement of paper PMC9233669.
This sample holds only a part of the variants without activity.

Experiments:
[1] = tested on: biotinyl-Phe-oxazolone; assay: self-aminoacylation, catalytic enhancement (BFO) (fold over background); higher = more active; k-Seq, kA / k0A0; sequences stand for … in GGGAAUGGAUCCACAUCUACGAAUUC…UUCACUGCAGACUUGACGAAGCUG
Outline: (§1)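 Catalytic enhancement equals the median kA over the uncatalyzed rate, the latter read from the low-activity peak of a bimodal Gaussian fit. Values of kA came from fitting each sequence's fraction reacted to a pseudo-first-order model, with 1000 bootstraps. Reacted RNA was captured with streptavidin and quantified by triplicate qPCR and Illumina sequencing after 90 minutes at room temperature with 2–1250 μM biotinyl-aminoacyl-oxazolone and 0.43 μM mutagenized RNA pools bearing a 21-nt variable region.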

[2] = tested on: biotinyl-Ile-oxazolone; assay: self-aminoacylation, catalytic enhancement (BIO) (fold over background); higher = more active; k-Seq, kA / k0A0; sequences stand for … in GGGAAUGGAUCCACAUCUACGAAUUC…UUCACUGCAGACUUGACGAAGCUG
Outline: as §1

[3] = tested on: biotinyl-Met-oxazolone; assay: self-aminoacylation, catalytic enhancement (BMO) (fold over background); higher = more active; k-Seq, kA / k0A0; sequences stand for … in GGGAAUGGAUCCACAUCUACGAAUUC…UUCACUGCAGACUUGACGAAGCUG
Outline: as §1

[4] = tested on: biotinyl-Val-oxazolone; assay: self-aminoacylation, catalytic enhancement (BVO) (fold over background); higher = more active; k-Seq, kA / k0A0; sequences stand for … in GGGAAUGGAUCCACAUCUACGAAUUC…UUCACUGCAGACUUGACGAAGCUG
Outline: as §1

[5] = tested on: biotinyl-Leu-oxazolone; assay: self-aminoacylation, catalytic enhancement (BLO) (fold over background); higher = more active; k-Seq, kA / k0A0; sequences stand for … in GGGAAUGGAUCCACAUCUACGAAUUC…UUCACUGCAGACUUGACGAAGCUG
Outline: as §1

[6] = tested on: biotinyl-Trp-oxazolone; assay: self-aminoacylation, catalytic enhancement (BWO) (fold over background); higher = more active; k-Seq, kA / k0A0; sequences stand for … in GGGAAUGGAUCCACAUCUACGAAUUC…UUCACUGCAGACUUGACGAAGCUG
Outline: as §1

Sequence	self-aminoacylation [1]	self-aminoacylation [2]	self-aminoacylation [3]	self-aminoacylation [4]	self-aminoacylation [5]	self-aminoacylation [6]
AUUACCCAGGUCUUCGAGUGA [Fam2.1 aminoacylation ribozyme variant]	39.3	3.65	5.69	3.61	6.86	8.2
AUUACCCAGGUGAUCGAGUGA [Fam2.1 aminoacylation ribozyme variant]	29.3	2.39	4.68	2.33	4.3	6.02
AUUACCCCGAUCAUCGAGUGA [Fam2.1 aminoacylation ribozyme variant]	27.4	3.39	7.24	3.77	7.03	7.71
AUUACCCCGGGCAUCGAGUGA [Fam2.1 aminoacylation ribozyme variant]	39.4	3.78	5.45	4.03	8.03	8.11
AUUACCCCGGUCAUCGAGUGA [Fam2.1 aminoacylation ribozyme variant]	27.9	2.93	5.35	3.2	5.4	6.34
AUUACCCCGGUCAUCGAGUUA [Fam2.1 aminoacylation ribozyme variant]	1.74	1.17	1.41	0.938	1.16	1.01
AUUACCCCGGUCAUCUAGUGA [Fam2.1 aminoacylation ribozyme variant]	47.1	4.31	7.8	3.96	8.24	8.95
AUUACCCCGGUCAUGGAGUGA [Fam2.1 aminoacylation ribozyme variant]	22.6	2.92	4.97	3.07	5.28	6.2
AUUACCCGGGACAUCGAGUGA [Fam2.1 aminoacylation ribozyme variant]	80.3	4.52	10.5	5.01	11.2	12.3
AUUACCCGGGCCAUCGAGUGA [Fam2.1 aminoacylation ribozyme variant]	41.7	4.18	8.49	5.47	10.1	8.23
AUUACCCGGGUCAUCCAGUGA [Fam2.1 aminoacylation ribozyme variant]	28.6	3.39	4.59	3.05	4.86	5.93
AUUACCCGGGUCAUCGAGCGA [Fam2.1 aminoacylation ribozyme variant]	1.09	2.08	1.97	2.18	2.22	1.55
AUUACCCGGGUCAUCGAGUGA [Fam2.1 aminoacylation ribozyme variant]	44.9	3.57	6.91	3.85	7.1	7.86
AUUACCCGGGUCAUCGGGUGA [Fam2.1 aminoacylation ribozyme variant]	132	6.62	13.9	7.9	14.7	12.4
AUUACCCGGGUCAUCGUGUGA [Fam2.1 aminoacylation ribozyme variant]	39	2.6	4.88	3.17	5.65	5.65
AUUACCCGGGUUAUCGAGUGA [Fam2.1 aminoacylation ribozyme variant]	94.5	5.68	13.3	5.94	14.4	14.6
AUUACCCGUGUCAUCGAGUGA [Fam2.1 aminoacylation ribozyme variant]	38.3	4.4	8.54	4.8	8.6	10.7
AUUACCCUAGGCAUCGAGUGA [Fam2.1 aminoacylation ribozyme variant]	18.1	2.47	5.3	2.68	5.37	6.47
AUUACCCUAGUCAUCGAGUGC [Fam2.1 aminoacylation ribozyme variant]	1.25	1.15	1.06	1.04	1.35	0.589
AUUACCCUAGUCAUCGUGUGA [Fam2.1 aminoacylation ribozyme variant]	5.35	1.25	2.4	1.29	2.17	2.89
AUUACCCUAGUCAUCUAGUGA [Fam2.1 aminoacylation ribozyme variant]	27.6	3.37	7.37	3.59	6.97	10.6
AUUACCCUCCUCAUCGAGUGA [Fam2.1 aminoacylation ribozyme variant]	15	1.81	3.98	2.08	3.99	4.74
AUUACCCUCGACAUCGAGUGA [Fam2.1 aminoacylation ribozyme variant]	83	4.58	11.5	5.56	12.7	14.5
